The results in this text go back to PMC3237451, “Missense Mutation in the Second RNA Binding Domain Reveals a Role for Prkra (PACT/RAX) during Skull Development”.

This data set addresses T1, His-RAX WT (PACT) (Mus musculus (cDNA from L929 cells), UniProt Q9WTX2 1-313).
T1 sequence: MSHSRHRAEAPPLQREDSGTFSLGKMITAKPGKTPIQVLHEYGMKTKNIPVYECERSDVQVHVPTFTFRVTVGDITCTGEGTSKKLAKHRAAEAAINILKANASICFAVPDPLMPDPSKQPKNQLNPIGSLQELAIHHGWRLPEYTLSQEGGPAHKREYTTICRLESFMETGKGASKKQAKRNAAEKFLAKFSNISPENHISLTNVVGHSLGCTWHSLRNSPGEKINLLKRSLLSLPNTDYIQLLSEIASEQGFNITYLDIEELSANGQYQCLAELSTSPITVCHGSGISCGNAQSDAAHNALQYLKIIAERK
As to the kind of experiment: EMSA; 1 uM His-RAX; 25 fmol probe; competed by poly(I:C); 20 mM Tris pH 7.5, 50 mM KCl, 2 mM MgCl2, 2 mM MnCl2, 5% glycerol; EMSA 15 min at room temperature, 5% acrylamide gel in 0.25x TBE run cold. The settings on record: protein: recombinant; blunt. Background: Mobility shift assays separate free from complexed probe on a gel.

B1: 30-bp dsRNA probe (dsRNA)
RNA 1: GGGAACAAAAGCUGGGUACCGGGCCCCCCC
RNA 2: GGGGGGGCCCGGUACCCAGCUUUUGUUCCC
On to B1, for which the binding result was “binds”.
